Reference: the nanobody polyreactivity screen of Harvey et al. (2022)

Assay: yeast display, Sf9 membrane polyspecificity reagent, FACS + sequencing; frameworks hold sequencing errors
Method in brief: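 Galactose-induced (36–48 hours) yeast carrying a synthetic nanobody display library were exposed to 10% biotinylated, detergent-solubilized Sf9 membrane reagent at 4 °C for 1 hour. FACS followed streptavidin microbead enrichment, using low and high (top ~1%) gates for expression (anti-HA) and reagent binding (streptavidin). Colony PCR, MiSeq 2 × 250 sequencing and CDR-length filtering followed. Labels for polyreactivity reflect the gate of origin.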

Row | Sequence | polyreactivity (PSR sort gate)
1 | QVQLVESGGGLVQAGGSLRLSCAASGSTFFVYAMGWYRQAPGKERELVATISSAASTYYADSVKGRFTISRDNAKNTVYLQMNSLKPEDTAVYYCAAGYFIRTRSRYRYDYWGQGTQVTVSS | high polyreactivity
2 | QVQLVETGGGLVQAGGSLRLSCAASGRTFEYNAMGWYRQAPGKERELVATIRYSGTSTYADSVKGRFTISRDNAKNPVYLQMNSQKPEDTAVYYCAKQVRYYGYKYNYWGQGTQVTVSS | high polyreactivity
3 | QVQLVESGGGLVQAGGSLRLSCAASGSTFDFNAMGWYRQAPGKERELVAAITYSGGSTYYADSVKGRFTISRDNAKNTVYLQMNSLKPVDTAVYYCAAEDVYPGSIDMDYWGQGTQVTVSS | low polyreactivity
4 | QVQLVESGGGLVQAGGSLRISCAASGFTFPSNAMGWYRQAPGKERELVAAITGGGRTYYADSVKGRFTISRDNAKNTVFFQMNSLKPEDTAVYYCNRPTRVHLTHYDYCGQGTQVTVSS | high polyreactivity
5 | QVQLVESGGGLVQAGGSLRLSCAASGRIFRANTMGWYRQAPGKERELVAVITASGGSTYYADSVKGRFTISRDNAKNTVYLQMNSLKPEDTAVYYCNVRWSPAGTGLLDYWGQGTQVTVSS | high polyreactivity
6 | QVQHVESRGGLVQAGGSLRLSCAASGSTFDGNAMGWYRQAPGTETELVAGISYRGGSTYYADSVKGRFTISRDYAKNSVYLQMNRLKPEDTAVYYCAADDYVYWLFDYWGQGTQVTVSS | low polyreactivity
7 | QVQLVESGGGLVQAGGSLRLSCAASGGTFGKNAMGWYRQAPGKERELVAAITWSGARTFYADSVKGRFTISRDNAKNTVYLQMNSLKPEDTAVYYCAKGGTRFTRYEYWGQGTQVTVSS | high polyreactivity
8 | QVQLVESGGGLVQAGGSLRLICAASGRTFYSYAMGWYRQAPGKERELVASISSGGGTNYADSVKGRFTISRDNAKNTVYLQKNSLKPEDTAVYYCDVDPYPYRGYDYWGQGTQVTVSS | low polyreactivity
9 | QVQLVESGGGLVQAGGSLRLSCAASGLIFIVYAMGWSRQAPGKERELVAAISWSGGSTYYADSVKGRFTISRDNAKNTVYLQMNSLKPEDTAVYYCAAPSSVRGKVISADYGYWGQGTQVTVSS | high polyreactivity
10 | PVQLVESGGGLVQAGGSLRLSCAASGRTFGYNAMGWYRQAPGKERELVASISYRGGSTYYADSVKGRFTISRDNAKNTVYLQMNSLKPEDTAVYYCNKYYVWREYYWGQGTQVNVSS | high polyreactivity
11 | QVQLVESGGGLVQAGGSLRLICAASGRIFVINAMGWYRQAPGKERELVAAITGGGSTNYADSVKGRFTISRDNAKNPVYLQMNSLKPEDTAVYYCAADYRPVRRFYYSRYDDWGQGTQVTVSS | low polyreactivity
12 | QVQLVESGGGLVHAGGSLRLSCAASGGIFGYYTMGWYRQAPGKERELVAAITWRGSTYYADSVKGRFTISRDNAKNTVYLQMNSLKPEDTAVYYCAARYYSPYGYWGQGTQVTVSS | high polyreactivity
13 | QVQLVESGGGLVQAGGSLRLSCAASGSIISRNAMGWYRQAPGKERELVATIRYRGGSTYYADSVKGRFTISRDNAKNTVYLQMNSLKPEDTAVYYCAARRSHPPDPRFRYGYWGQGTQVTVSS | high polyreactivity
14 | QVQLVESGGGLVQAGGSLRLSCAASGFIGWYAMGWYRQAPGNEREFVAAISASGGSTYYADSVKGRFTISRDNAKNTVYLQMNSLKPEETAVYYCAAYYRAYNPRRFYYWGQGTQVTVSS | high polyreactivity
15 | QDQLVESGGGLVQAGGSLRLSCAASGRIFGTYAMGWYRQAPGKERELVATISYSSGRTYYADSVKGRFTISRDNAKNTVYLQMNSLKPEDTAVYYCAAVGTGSSLRYDYWGQGTQVTVSS | high polyreactivity
16 | QVQLVESGGGLVQAGGSLRLICAASGFIFIGYAMGWYRQARGKERELVAAISWRGGTYYADSVKGRFTISRDNAKNSVYLQMNSLKPEDTAVYYCAARTRNAVRSGSGKYDYCGQGTQVTVSS | low polyreactivity
17 | QVQLVESGGGLVQAGGSLRLRCAASGSIFGLYAMGWYRQAPGKERELVAAINQSGGSTTYADSVKGRCTISRDNAKTPVYLQMNSLKPEATAGYSCPADSVGDYGYQVYASWGYEDEYCGQGTQVTVSS | low polyreactivity
18 | QVQIVESGGGLVQAGGSLRLSCAASGRIFTYNAMGWSRQAPGKERELVAAITRGGTTNYADSVKVRFTISRDNAKNTVYLQMNSLKPEDTAVSYCARAGAHPWWSRSTMYYWGQGTQVTVSS | low polyreactivity
19 | QVQLVESGGGLVQAGGSRSLSCAASGSTFYSYAMGWYRQAPGKERELVAAINWDGVSTYYADSVKGRFTISRDNAKNTVYLQMNSLKPEDTAVYYCAAELFSGYRISGTYYYWGQGTQVTVSS | low polyreactivity
20 | QVQLVESGGGLVQAGGSLRLSCAASGIIFEYYAMGWYIQAPGKERELVAAISSDTSTNYADSVKGRFTISRDNAKNTVYLQMNSLKPEDTAVYYCNADAYYDTYGIGVGTDYDYWGQGTQVTVSS | low polyreactivity
21 | QVQLVESGGGLVQAGGSLRLSCAASGRTFNFNAMGWYRQAPGKERELVATITSRGGSTYADSVKGRFTISRDNAKNTVYLQMNSLKPEDTAVYYCNARTPYIRDYQYWRKYDYWGQGTQVTVSS | high polyreactivity
22 | QVQLVESGGGLVQAGGSLRLSCAASGRTFFQYAMGGYRQAPGKERELVAAIRWSDSTYYADSVKGRFTISRDKAKNTVYLPMNSLKPEDTAVYYCNASVFQSEYDYWGQGTQVTVSS | low polyreactivity

Row | Sequence | polyreactivity (PSR sort gate)
23 | QVQLVESGGGLVQAGGSLRLSCAASGFIFLFNAMGWYRQAPGKERELVATNSSGGSTYYADSVKGRFTISLDNAKNTVYLQMTSLKPEDTAVYYCNAGPARTVYAQSSYVLYDYWGQGTQVTVSS | low polyreactivity
24 | QVQLVESGGGLVQAGGSLRLSCAASGFIFYRYAMGWYRQAPGKERELVATIRYSGGSTYYADSVKGRFTISRDNAKNTVYLQMNSLKPEDTAVYYCNARRWYLPRRLYDYWGQGTQVTVSS | high polyreactivity
25 | QVQLVESGGGLVQAGGSLRLSCAASGSTFIYYTMGWYRQAPGKERELVAAISWRGGSTYYADSVKGRFTIARDNAKNTVYLQMNSLKPEDTAVYYCATGYLYFTSYRYNYWGQGTQVTVSS | low polyreactivity
26 | QVQLVESGGGLVQAGGSLRLSCAASGFTFERYAMGWYRPAPGKDRELVAAITGSGGSTYYADSVKGRFTIARDNATNTVYLQMNSLKPEDTAFYYCARDSSLFRLRDYWGQGTQVTVSS | low polyreactivity
27 | QVELVESGGCLVQARGSLRLSCAGSGSIFYRNAMGWYRQAPGKERELVAAISSDGSTNYADSVKGRFTISRDNAKITVDLQMNSLIPEDTAVYYCAGPWTEILDYWGQGTQVTVSS | low polyreactivity
28 | QVQLVESGGGLVQARRSLRLSCAASGITFVFYTMGWYRQAPGKERELVAAITSSGVRTSYADSVKGRFTISRDNAMNTVYLQMNSLKPEDTAVYYCAAKPTYVHKPGYNYWGQGTQVTVSS | high polyreactivity
29 | QVHLVDSGGGLVQAGGILRLSCAASGRIFVNTMGCYRQAPGKEMELVAAITRSGVSTYYADSVKGRFTISRDNAKNTVYLQMNSLKPEDTAVYYCAAREWSGPKIYPPYRYNSWGQGTQVTVSS | high polyreactivity
30 | QVQLVESGGGLVQAGGSLRLSCAASGSTFHLYAMGWYRQAPGKEREFVAAIRGRGGNTYADSVKGRFTISRDNAKNTVYLQMNSLKPEDTAFYYCAAPLLRDLRSPYSYNYWGQGTQVTVSS | low polyreactivity
31 | QVQLEESGGGLVQAGGSLRLSCAASVSIFFVNAMGWYRQAPGKERELVASISRDGSTNYADSVKGRFTISRDNAKNTVYLQMNSLKPEVTAVYYCNGLSADWYPEEDYWGQGTQVTVSS | low polyreactivity
32 | QVQLVESGVGLVQAGGSLRLSCAASGFIIRTYAMGWYIQAPGKERELVATITGDGSTNYADSVKGRFTISRDNAKNTVYLQMNSLKPEDTAVYYCSRDDRLAVDYWGQGTQVTVSS | low polyreactivity
33 | QVQLVESGGGLVQAGGSLRLSCAASGFTFFDYVMGWYRQAPGKERELVAAISSGGSTYYADSVKGRFTISRDNAKNTVYLQMNSLKPEDTAVYYCATDNGYPDDATDGYYSLYDYWGQGTQVTVSS | low polyreactivity
34 | QVQLVESGGGLVQAGGSLRLSCAASGFIIKSYAMGWYRQAPGKERELVAAISYTGSITYYADSVKGRFTISRDNAKNTVYLQMNSLKPEDTSVYYCAVGRYADQNDYWGQGTQVTVSS | high polyreactivity
35 | QVQLVESGGGLVQAGGSLRLSCAASGRIFKSYTMGWYRQAPGKERALVAGITWSGGSTYYADSVKGRFTISRDNAKNTVYLQMNSLKPDDTAVYYCATKTFYNYGFWGQGTQVTVSS | high polyreactivity
36 | HVQLQESGVGLVQAGGSLRLSCAASGTISQEYWMGWYRQAPGKEREFVAAIGLGSNTNYADSLKGRFTISRDNSTNTVFLQMNSLKPEDTAVYYCAVSVWQYSDHVYRGQGTQVTVSS | low polyreactivity
37 | QVQLVESGGCLVQAGGSLRLTCAASGFIFPYYAMGWYRQAPGKERELVAGITGADSTYYADSVKGRFTISRDNAKNTVYLQMNSLKPEDTAVYYCARKRYSLSRTYNYGYWGQGTQVTVSS | high polyreactivity
38 | QVQLVESGGGLVQAGGRLRLSCAASGITFYHYAMGWYRQAPGKERELVAAITRSGGRTYYAVSVKGRFTISRDTANNTVYVEMYSLKPEVTAVYYSAARWQKTAGRYYYWGQGTQVTGSS | high polyreactivity
39 | QVQLVESGGGLVQAGGSLRLSCAASGFTFRSYAMGWYRQAPGKEREFVAAINGRSGSTYADSVKGRFTISRDNAKNTVYLQMNSLNPEDTAVYYCAAGQRHKNSNRPDNYWGQGSQVTVSS | high polyreactivity
40 | QVQLVESGGGLVQAGGSLRLSCAASGLTFANYAMGWYRQAPGKERELVAAISTWSGGSTYYADSVKGRFTISRDNAKNTVYLQMNSLKPEDTAVYYCAARRYSRGRLPYDYGGQGTQVTVSS | high polyreactivity
41 | QVQLVESGGGLDQAGGSLRLSCAASGFTFYVYTMGWYRQAPGKERELVARITSRAGRTYYADSVKGRFTISRDNAKNTVYLQMNSLKPEDTAVYYCNTRDFSGYVHALSLYDYWGQGTQVTVSS | high polyreactivity
42 | QVQLVESGGGLVQAGGSLRLSCAASGLTFRRYDMGWYSQAPGKERELVAAITGGGSTYYADSVKGRFTISRDNAKNTVYLQMNSLKPEDTAGYYCAAGTWYWSYAYDYWGQGTQVTVSS | high polyreactivity
43 | QFQLVESGGGLVQAGGSLRLSCAASGFIFYKYAMGWYRQAPGKERELVAAISSIGGRTYYADSVKGRFTISRDNAKNTVYLQMNSLKPEDTAVYYCAARYRRTIPWFAPGNDHKYWGQGTQVTVSS | high polyreactivity
